Key:
[1] = molecular target: T1, recombinant sCD4 comprising the full-length extracellular domain of human CD4 (human, UniProt P01730 26-396); assay: SPR (Biacore), antibody amine-coupled on the chip, human sCD4 as analyte, 25 C, 1:1 Langmuir fit
T1 construct: also called human soluble CD4; human sCD4 protein
Procedure: (§1) Binding affinity analyses were performed with a Biacore T3000 optical biosensor (GE Healthcare, Piscataway, N.J.). Immobilization of ibalizumab and all the glycan variants were performed following the standard amine coupling procedure. Briefly, carboxyl groups on the sensor chip surface were activated by injection of 35 μL of a solution containing 0.2 M N-(3-dimethylaminopropyl)-N-ethylcarbodiimide and 0.05 M Nhydroxysuccinimide at a flow rate of 5 μL/minute. Next, ibalizumab or its mutant variant, at a concentration of 2 μg/mL in 10 mM sodium-acetate buffer, pH 4.5, was allowed to flow over the chip surface at a rate of 10 μL/minute until the desired level of response units of reacted protein (150-200 RU) was achieved. After unreacted protein was washed out, excess active ester groups on the sensor surface were capped by the injection of 35 μL of 1 M ethanolamine, pH 8.0, at a flow rate of 5 μL/minute. As background to correct instrument and buffer artifacts, a reference was generated under the same conditions with omission of the protein ligand. Binding experiments were performed at 25° C. in HBS-EP buffer (0.01 M HEPES, 0.15M NaCl, 3 mM EDTA, 0.005% vol/vol surfactant P20 (GE Healthcare). Binding kinetics were measured by passing various concentrations of analyte (human sCD4 protein) over the chip surface at a flow rate of 30 μL/minute for 3 min. Dissociation of bound analytes was monitored while the surface was washed for 10 min. Remaining analytes were removed at a flow rate of 50 µL/minute with two 30-sec injections of 10 mM glycine-HCl, pH 2.0. For kinetics data analysis, the kinetic parameters were determined by collectively fitting the overlaid sensograms […] using the BIAevaluation 4.1 software to the 1:1 Langmuir binding model.
(§2) We next evaluated the kinetics of binding of these ibalizumab LMs to human soluble CD4 (sCD4) by surface plasmon resonance. In a Biacore assay using sCD4 as the analyte, WT ibalizumab and LMs bound sCD4 with similar binding kinetics.

[2] = molecular target: T1, recombinant sCD4 comprising the …; assay: SPR (Biacore), sCD4 as analyte; member of the six by its KD in Table 1
Procedure: as §1, §2

Binder	Kd [1] [nM]	koff [1] [s⁻¹]	kon [1] [M⁻¹ s⁻¹]	fold of KD against wild-type ibalizumab [2] [fold]
LM30E, ibalizumab light chain mutant with an N-linked glycosylation site at position 30E (antibody, human IgG1, kappa, V domains shown) VH: QVQLQQSGPEVVKPGASVKMSCKASGYTFTSYVIHWVRQKPGQGLDWIGYINPYNDGTDYDEKFKGKATLTSDTSTSTAYMELSSLRSEDTAVYYCAREKDNYATGAWFAYWGQGTLVTVSS VL: DIVMTQSPDSLAVSLGERVTMNCKSSQSLLYSTNNATYLAWYQQKPGQSPKLLIYWASTRESGVPDRFSGSGSGTDFTLTISSVQAEDVAVYYCQQYYSYRTFGGGTKLEIKR	1.4	0.00015	110000	
LM60, ibalizumab light chain mutant with an N-linked glycosylation site at position 60 (antibody, human IgG1, kappa, V domains shown) VH: QVQLQQSGPEVVKPGASVKMSCKASGYTFTSYVIHWVRQKPGQGLDWIGYINPYNDGTDYDEKFKGKATLTSDTSTSTAYMELSSLRSEDTAVYYCAREKDNYATGAWFAYWGQGTLVTVSS VL: DIVMTQSPDSLAVSLGERVTMNCKSSQSLLYSTNQKNYLAWYQQKPGQSPKLLIYWASTRESGVPNATSGSGSGTDFTLTISSVQAEDVAVYYCQQYYSYRTFGGGTKLEIKR	0.19	8.3e-05	440000	≤ 2
LM76, ibalizumab light chain mutant with an N-linked glycosylation site at position 76 (antibody, human IgG1, kappa, V domains shown) VH: QVQLQQSGPEVVKPGASVKMSCKASGYTFTSYVIHWVRQKPGQGLDWIGYINPYNDGTDYDEKFKGKATLTSDTSTSTAYMELSSLRSEDTAVYYCAREKDNYATGAWFAYWGQGTLVTVSS VL: DIVMTQSPDSLAVSLGERVTMNCKSSQSLLYSTNQKNYLAWYQQKPGQSPKLLIYWASTRESGVPDRFSGSGSGTDFTLTINATQAEDVAVYYCQQYYSYRTFGGGTKLEIKR	0.28	0.00014	500000	≤ 2
LM54, ibalizumab light chain mutant with an N-linked glycosylation site at position 54 (antibody, human IgG1, kappa, V domains shown) VH: QVQLQQSGPEVVKPGASVKMSCKASGYTFTSYVIHWVRQKPGQGLDWIGYINPYNDGTDYDEKFKGKATLTSDTSTSTAYMELSSLRSEDTAVYYCAREKDNYATGAWFAYWGQGTLVTVSS VL: DIVMTQSPDSLAVSLGERVTMNCKSSQSLLYSTNQKNYLAWYQQKPGQSPKLLIYWASTNATGVPDRFSGSGSGTDFTLTISSVQAEDVAVYYCQQYYSYRTFGGGTKLEIKR	0.73	0.00027	370000	≤ 2
LM52, glycan-modified anti-CD4 IgG1 antibody with an N-linked glycan at light chain position 52 (antibody, V domains shown) VH: QVQLQQSGPEVVKPGASVKMSCKASGYTFTSYVIHWVRQKPGQGLDWIGYINPYNDGTDYDEKFKGKATLTSDTSTSTAYMELSSLRSEDTAVYYCAREKDNYATGAWFAYWGQGTLVTVSS VL: DIVMTQSPDSLAVSLGERVTMNCKSSQSLLYSTNQKNYLAWYQQKPGQSPKLLIYWANSTESGVPDRFSGSGSGTDFTLTISSVQAEDVAVYYCQQYYSYRTFGGGTKLEIKR	0.35	0.00016	460000	≤ 2
LM53, ibalizumab light chain mutant with an N-linked glycosylation site at position 53 (antibody, human IgG1, kappa, V domains shown) VH: QVQLQQSGPEVVKPGASVKMSCKASGYTFTSYVIHWVRQKPGQGLDWIGYINPYNDGTDYDEKFKGKATLTSDTSTSTAYMELSSLRSEDTAVYYCAREKDNYATGAWFAYWGQGTLVTVSS VL: DIVMTQSPDSLAVSLGERVTMNCKSSQSLLYSTNQKNYLAWYQQKPGQSPKLLIYWASNATSGVPDRFSGSGSGTDFTLTISSVQAEDVAVYYCQQYYSYRTFGGGTKLEIKR	0.45	0.00013	290000	≤ 2
LM67, ibalizumab light chain mutant with an N-linked glycosylation site at position 67 (antibody, human IgG1, kappa, V domains shown) VH: QVQLQQSGPEVVKPGASVKMSCKASGYTFTSYVIHWVRQKPGQGLDWIGYINPYNDGTDYDEKFKGKATLTSDTSTSTAYMELSSLRSEDTAVYYCAREKDNYATGAWFAYWGQGTLVTVSS VL: DIVMTQSPDSLAVSLGERVTMNCKSSQSLLYSTNQKNYLAWYQQKPGQSPKLLIYWASTRESGVPDRFSGSGNATDFTLTISSVQAEDVAVYYCQQYYSYRTFGGGTKLEIKR	0.8	0.0002	250000	≤ 2
LM65, ibalizumab light chain mutant with an N-linked glycosylation site at position 65 (antibody, human IgG1, kappa, V domains shown) VH: QVQLQQSGPEVVKPGASVKMSCKASGYTFTSYVIHWVRQKPGQGLDWIGYINPYNDGTDYDEKFKGKATLTSDTSTSTAYMELSSLRSEDTAVYYCAREKDNYATGAWFAYWGQGTLVTVSS VL: DIVMTQSPDSLAVSLGERVTMNCKSSQSLLYSTNQKNYLAWYQQKPGQSPKLLIYWASTRESGVPDRFSGNATGTDFTLTISSVQAEDVAVYYCQQYYSYRTFGGGTKLEIKR	1.5	0.00049	330000	

Source: US20150166662A1 (ROCKEFELLER UNIVERSITY, published 2015)
